Measurements as given in patent US20120034163A1, “NON-INVASIVE TOOLS FOR DETECTING VULNERABLE ATHEROSCLEROTIC PLAQUES” (UNIVERSITE JOSEPH FOURIER, priority 2009, published 2012).
Where no end group is shown, it is not given here.

Key:
[1] = biological target: T1, VCAM-1 expression in the atherosclerotic lesion (Mus musculus, UniProt P29533); experiment: Carotid activity ratios from gamma-well counting of excised vessels and blood; assay type: in vivo, ApoE−/− mice; conditions: for Left-to-right carotid artery activity ratio compared with EP43: FIG. 4; for Left carotid-to-blood activity ratio compared with EP43: FIG. 5
T1 construct: The inventors observed a positive VCAM-1 staining in the atherosclerotic lesion as compared with a contralateral vessel; from tissue; host or cells: ligated left carotid artery (atherosclerotic lesion) of living ApoE-/- mice
T1 sequence (P29533 25-739): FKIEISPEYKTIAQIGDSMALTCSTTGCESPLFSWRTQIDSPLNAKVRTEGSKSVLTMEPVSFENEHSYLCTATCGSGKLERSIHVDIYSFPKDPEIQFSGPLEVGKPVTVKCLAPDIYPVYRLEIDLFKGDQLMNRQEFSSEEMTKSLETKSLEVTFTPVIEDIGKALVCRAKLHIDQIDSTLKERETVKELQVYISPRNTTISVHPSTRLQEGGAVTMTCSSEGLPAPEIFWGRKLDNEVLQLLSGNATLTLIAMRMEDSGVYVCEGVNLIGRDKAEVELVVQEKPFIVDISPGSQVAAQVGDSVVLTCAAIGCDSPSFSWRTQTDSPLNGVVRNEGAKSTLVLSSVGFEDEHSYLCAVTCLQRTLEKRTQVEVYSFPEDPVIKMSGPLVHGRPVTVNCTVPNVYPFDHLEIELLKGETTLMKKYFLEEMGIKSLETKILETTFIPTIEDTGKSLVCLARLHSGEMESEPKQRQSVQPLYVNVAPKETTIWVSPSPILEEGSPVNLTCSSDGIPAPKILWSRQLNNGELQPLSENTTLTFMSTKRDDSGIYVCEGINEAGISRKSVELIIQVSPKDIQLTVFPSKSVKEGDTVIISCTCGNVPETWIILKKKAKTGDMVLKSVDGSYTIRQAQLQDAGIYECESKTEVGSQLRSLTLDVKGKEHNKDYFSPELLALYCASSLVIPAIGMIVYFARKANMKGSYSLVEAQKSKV
From the text: The inventors also analyzed the left-to-right carotid activity ratios (FIG. 1) and left carotid-to-blood activity ratios (FIG. 2). These ratios were obtained from gamma-well counting of excised vessels and blood.

[2] = biological target: T1, VCAM-1 expression in the atherosclerotic lesion; experiment: In vivo whole-body planar imaging; parameters: species or system ApoE−/− mice; conditions: for Left-to-right carotid activity ratio from quantified planar images compared to EP43: FIG. 8, FIG. 9; for Non invasive imaging of tracer uptake in the carotid atherosclerotic lesion: whole-body planar images, similar dose of tracer, FIG. 6
Experimental: In vivo planar imaging was performed using a small-animal dedicated gamma-camera equipped with a parallel-hole collimator.

[3] = biological target: T2, VCAM-1 expression in atherosclerotic lesions (Mus musculus, UniProt P29533); experiment: In vivo pinhole SPECT imaging; parameters: species or system ApoE−/− mice
T2 construct: The inventors observed a positive VCAM-1 staining in the atherosclerotic lesion as compared with a contralateral vessel; from tissue; host or cells: ligated left carotid artery (atherosclerotic lesion) of living ApoE-/- mice
T2 sequence (P29533 25-739): T1 sequence (P29533 25-739)
Experimental: In vivo pinhole SPECT imaging was performed using a small-animal dedicated gamma-camera equipped with a pinhole collimator for high-resolution imaging.

[4] = Organ biodistribution of 99mTc-labelled tracers by gamma-well counting of excised organs; conditions: 3 hours after injection
Experimental: An experimental model of ApoE^−/− mice with left carotid artery ligation was used.
Left carotid artery ligation was performed under anesthesia and the animals were returned to their cages. Three weeks later, the animals were re-anesthetized and the radiotracers were injected in a lateral tail vein. Planar imaging was performed for 3 hours before the animals were euthanized. The major organs were excised, weighed and gamma-well counted for the determination of the tracers' biodistribution.

[5] = biological target: T3, VCAM-1 (Homo sapiens, UniProt P19320); conditions: Ling et al. (2000); cited from earlier work
T3 sequence (P19320 25-739): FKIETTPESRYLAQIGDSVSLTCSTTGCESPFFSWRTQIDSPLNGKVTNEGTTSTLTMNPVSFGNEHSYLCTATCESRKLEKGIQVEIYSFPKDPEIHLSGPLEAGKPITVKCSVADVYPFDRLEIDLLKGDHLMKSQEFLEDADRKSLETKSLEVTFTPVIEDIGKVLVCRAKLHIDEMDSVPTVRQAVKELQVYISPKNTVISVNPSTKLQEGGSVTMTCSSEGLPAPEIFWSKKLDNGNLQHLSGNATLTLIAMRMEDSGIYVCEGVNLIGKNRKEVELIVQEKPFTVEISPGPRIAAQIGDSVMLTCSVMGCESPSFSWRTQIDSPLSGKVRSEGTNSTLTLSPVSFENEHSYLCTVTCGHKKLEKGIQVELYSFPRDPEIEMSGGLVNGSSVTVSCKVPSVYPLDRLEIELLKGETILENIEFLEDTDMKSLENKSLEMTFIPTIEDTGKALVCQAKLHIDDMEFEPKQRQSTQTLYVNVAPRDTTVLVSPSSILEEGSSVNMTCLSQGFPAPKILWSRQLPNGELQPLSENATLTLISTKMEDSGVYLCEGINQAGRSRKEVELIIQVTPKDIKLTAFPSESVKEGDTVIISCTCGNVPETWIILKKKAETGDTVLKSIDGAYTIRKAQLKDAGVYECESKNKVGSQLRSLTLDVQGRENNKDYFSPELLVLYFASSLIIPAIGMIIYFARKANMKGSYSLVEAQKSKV

[6] = high resolution pinhole SPECT, FIG. 10

Sequence | Left-to-right carotid artery activity ratio compared with EP43 [1] | Left carotid-to-blood activity ratio compared with EP43 [1] | Left-to-right carotid activity ratio from quantified planar images compared to EP43 [2] | Non invasive imaging of tracer uptake in the carotid atherosclerotic lesion [2] | Binding to VCAM-1 [5] | other results
HGRANLRILAAY (also: 99mTc label) [EP52] | did not display improved | did not display improved | did not display improved | – | – | –
HGRANLRILARA (also: 99mTc label) [EP51] | did not display improved | did not display improved | did not display improved | – | – | –
HGRANLRILARY (not fully specified; also: 99mTc label) [EP43] | – | – | – | allowed the detection of VCAM-1 expression in the atherosclerotic lesion | – | Left-to-right carotid activity ratio versus B2702-p ([1]; gamma-well counting, FIG. 1): significantly higher; Left carotid-to-blood activity ratio versus B2702-p ([1]; gamma-well counting, FIG. 2): significantly higher; Tracer activity in the atherosclerotic lesion versus contralateral vessel, image quantification ([3]; all animals, FIG. 11): significantly higher mean tracer activity; In vivo SPECT imaging of VCAM-1 expression in atherosclerotic lesions ([3]; conclusion): allowed in vivo SPECT imaging of VCAM-1 expression in atherosclerotic lesions; Tracer activity in the right carotid area [3, 6]: no significant tracer activity could be detected; Tracer uptake at the atherosclerotic lesion (left carotid) [3, 6]: uptake at the level of the atherosclerotic lesion; Quantification of planar images, compared with other evaluated tracers ([2]; FIG. 7): superiority; Left carotid activity, compared among tracers [4]: highest left carotid activity; Tracer activity in the atherosclerotic lesion versus contralateral, control carotid [4]: significantly higher
HGRENLRIALRY [B2702-p, parent tracer, reference compound] | – | – | – | high circulating blood activity precluded the non invasive imaging | bind specifically | –
YRLAIRLNER RENLRIALRY (YRLAIRLNERRENLRIALRY; B2702-rp) | – | – | – | – | bind specifically | –
